According to publication PMC2836954 (Molecular Biology of the Cell, 2010):

B1: EGFP-PKD2-WT (protein kinase D2, wild type) (enzyme, UniProt Q9BZL6 1-878, looked up)
chain: MATAPSYPAGLPGSPGPGSPPPPGGLELQSPPPLLPQIPAPGSGVSFHIQIGLTREFVLLPAASELAHVKQLACSIVDQKFPECGFYGLYDKILLFKHDPTSANLLQLVRSSGDIQEGDLVEVVLSASATFEDFQIRPHALTVHSYRAPAFCDHCGEMLFGLVRQGLKCDGCGLNYHKRCAFSIPNNCSGARKRRLSSTSLASGHSVRLGTSESLPCTAEELSRSTTELLPRRPPSSSSSSSASSYTGRPIELDKMLLSKVKVPHTFLIHSYTRPTVCQACKKLLKGLFRQGLQCKDCKFNCHKRCATRVPNDCLGEALINGDVPMEEATDFSEADKSALMDESEDSGVIPGSHSENALHASEEEEGEGGKAQSSLGYIPLMRVVQSVRHTTRKSSTTLREGWVVHYSNKDTLRKRHYWRLDCKCITLFQNNTTNRYYKEIPLSEILTVESAQNFSLVPPGTNPHCFEIVTANATYFVGEMPGGTPGGPSGQGAEAARGWETAIRQALMPVILQDAPSAPGHAPHRQASLSISVSNSQIQENVDIATVYQIFPDEVLGSGQFGVVYGGKHRKTGRDVAVKVIDKLRFPTKQESQLRNEVAILQSLRHPGIVNLECMFETPEKVFVVMEKLHGDMLEMILSSEKGRLPERLTKFLITQILVALRHLHFKNIVHCDLKPENVLLASADPFPQVKLCDFGFARIIGEKSFRRSVVGTPAYLAPEVLLNQGYNRSLDMWSVGVIMYVSLSGTFPFNEDEDINDQIQNAAFMYPASPWSHISAGAIDLINNLLQVKMRKRYSVDKSLSHPWLQEYQTWLDLRELEGKMGERYITHESDDARWEQFAAEHPLPGSGLPTDRDLGGACPPQDHDMQGLAERISVL

Columns and labels:
Experiment in all cases: pull-down
[1] = biological target: the active ARF1 mutants ARF-Q71L and ARF1-Δ17-Q71L
[2] = biological target: GST-ARF1 Δ17-Q71L (human, UniProt P84077 18-181, Q71L)
Chain of GST-ARF1 Δ17-Q71L (P84077 18-181 Q71L): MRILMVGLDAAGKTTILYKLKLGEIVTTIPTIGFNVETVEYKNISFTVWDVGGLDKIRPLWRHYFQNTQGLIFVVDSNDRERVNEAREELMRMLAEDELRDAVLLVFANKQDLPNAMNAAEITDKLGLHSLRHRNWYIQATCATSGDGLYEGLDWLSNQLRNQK

[3] = biological target: GST-ARF1-Q71L (human, UniProt P84077 1-181, Q71L)
Chain of GST-ARF1-Q71L (P84077 whole entry Q71L): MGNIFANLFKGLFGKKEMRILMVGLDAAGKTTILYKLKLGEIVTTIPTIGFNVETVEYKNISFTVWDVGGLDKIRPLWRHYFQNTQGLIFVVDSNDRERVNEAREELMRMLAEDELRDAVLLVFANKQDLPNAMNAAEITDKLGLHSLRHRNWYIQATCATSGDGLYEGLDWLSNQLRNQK

| Molecule | fold binding compared with wild-type or dominant-negative ARF1 [1] | fold binding compared with ARF1-WT [2] | fold binding compared with ARF1-WT or ARF1-T31N [3] |
| --- | --- | --- | --- |
| His-tagged C1b domain of PKD2 (domain or fragment) | 1.5 to 1.75 fold |  |  |
| B1 |  | 2 fold | 2 fold |
